Data reported in IntAct's records for PubMed 22745600.

B1: Pre-B-cell leukemia transcription factor 1 (Mus musculus), P41778 (parent)
chain: MDEQPRLMHSHAGVGMAGHPGLSQHLQDGAGGTEGEGGRKQDIGDILQQIMTITDQSLDEAQARKHALNCHRMKPALFNVLCEIKEKTVLSIRGAQEEEPTDPQLMRLDNMLLAEGVAGPEKGGGSAAAAAAAAASGGAGSDNSVEHSDYRAKLSQIRQIYHTELEKYEQACNEFTTHVMNLLREQSRTRPISPKEIERMVSIIHRKFSSIQMQLKQSTCEAVMILRSRFLDARRKRRNFNKQATEILNEYFYSHLSNPYPSEEAKEELAKKCGITVSQVSNWFGNKRIRYKKNIGKFQEEANIYAAKTAVTATNVSAHGSQANSPSTPNSAGSSSSFNMSNSGDLFMSVQSLNGDSYQGAQVGANVQSQVDTLRHVISQTGGYSDGLAASQMYSPQGISANGGWQDATTPSSVTSPTEGPGSVHSDTSN
B2: Homeobox protein extradenticle (Drosophila melanogaster (Fruit fly)), P40427 (parent)
chain: MEDPNRMLAHTGGMMAPQGYGLSGQDDGQNAGSENEVRKQKDIGEILQQIMSISEQSLDEAQARKHTLNCHRMKPALFSVLCEIKEKTVLSIRNTQEEEPPDPQLMRLDNMLIAEGVAGPEKGGGGAAAASAAAASQGGSLSIDGADNAIEHSDYRAKLAQIRQIYHQELEKYEQACNEFTTHVMNLLREQSRTRPITPKEIERMVQIIHKKFSSIQMQLKQSTCEAVMILRSRFLDARRKRRNFSKQASEILNEYFYSHLSNPYPSEEAKEELARKCGITVSQVSNWFGNKRIRYKKNIGKAQEEANLYAAKKAAGASPYSMAGPPSGTTTPMMSPAPPQDSMGYPMGSGGYDQQQPYDNSMGGYDPNLHQDLSP

How the values were obtained:
hxb8_mouse Hoxb8, P09632 = variants of: B1; details: with hxb8_mouse Hoxb8, P09632
lab_drome lab, P10105 = variants of: B2; details: with lab_drome lab
abdb_drome Abd-B, P09087 = variants of: B2; details: with abdb_drome Abd-B
ubx_drome Ubx, P83949 = variants of: B2; details: with ubx_drome Ubx
abda_drome abd-A, P29555 = variants of: B2; details: with abda_drome abd-A
abda_drome abd-A, P29555, sequence (P29555 whole entry): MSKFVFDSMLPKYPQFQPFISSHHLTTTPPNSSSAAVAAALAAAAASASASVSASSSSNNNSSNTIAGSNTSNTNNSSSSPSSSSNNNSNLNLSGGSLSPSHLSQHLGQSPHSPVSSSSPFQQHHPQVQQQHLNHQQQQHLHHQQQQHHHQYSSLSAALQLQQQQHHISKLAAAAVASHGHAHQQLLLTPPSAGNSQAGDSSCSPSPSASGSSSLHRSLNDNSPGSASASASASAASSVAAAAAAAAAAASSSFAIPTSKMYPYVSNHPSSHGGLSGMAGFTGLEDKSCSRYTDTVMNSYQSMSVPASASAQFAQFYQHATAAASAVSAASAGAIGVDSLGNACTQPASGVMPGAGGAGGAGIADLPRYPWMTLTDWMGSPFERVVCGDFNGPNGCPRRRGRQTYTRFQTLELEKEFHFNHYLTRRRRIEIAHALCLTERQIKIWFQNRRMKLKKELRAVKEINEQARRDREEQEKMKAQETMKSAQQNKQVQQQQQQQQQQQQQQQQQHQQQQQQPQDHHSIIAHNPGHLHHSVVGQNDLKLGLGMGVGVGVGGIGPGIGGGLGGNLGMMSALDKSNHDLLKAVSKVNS

lab_drome lab, P10105, sequence (P10105 whole entry): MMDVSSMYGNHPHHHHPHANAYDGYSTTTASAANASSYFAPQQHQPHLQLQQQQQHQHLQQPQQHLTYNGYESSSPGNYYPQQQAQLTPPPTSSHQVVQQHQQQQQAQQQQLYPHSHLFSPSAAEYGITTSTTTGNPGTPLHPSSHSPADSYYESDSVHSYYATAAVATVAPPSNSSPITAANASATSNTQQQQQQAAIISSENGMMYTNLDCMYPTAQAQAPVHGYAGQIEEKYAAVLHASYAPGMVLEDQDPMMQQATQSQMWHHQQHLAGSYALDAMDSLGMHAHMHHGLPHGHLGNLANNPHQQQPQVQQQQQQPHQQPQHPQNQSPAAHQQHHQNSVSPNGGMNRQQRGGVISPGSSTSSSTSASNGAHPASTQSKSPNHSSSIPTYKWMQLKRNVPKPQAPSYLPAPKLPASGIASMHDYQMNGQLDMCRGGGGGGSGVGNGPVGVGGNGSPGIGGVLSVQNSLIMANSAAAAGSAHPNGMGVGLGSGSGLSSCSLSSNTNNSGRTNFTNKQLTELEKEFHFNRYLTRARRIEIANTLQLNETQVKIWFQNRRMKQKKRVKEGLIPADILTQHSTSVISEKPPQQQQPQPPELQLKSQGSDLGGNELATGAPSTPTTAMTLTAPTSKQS
ubx_drome Ubx, P83949, sequence (P83949 whole entry): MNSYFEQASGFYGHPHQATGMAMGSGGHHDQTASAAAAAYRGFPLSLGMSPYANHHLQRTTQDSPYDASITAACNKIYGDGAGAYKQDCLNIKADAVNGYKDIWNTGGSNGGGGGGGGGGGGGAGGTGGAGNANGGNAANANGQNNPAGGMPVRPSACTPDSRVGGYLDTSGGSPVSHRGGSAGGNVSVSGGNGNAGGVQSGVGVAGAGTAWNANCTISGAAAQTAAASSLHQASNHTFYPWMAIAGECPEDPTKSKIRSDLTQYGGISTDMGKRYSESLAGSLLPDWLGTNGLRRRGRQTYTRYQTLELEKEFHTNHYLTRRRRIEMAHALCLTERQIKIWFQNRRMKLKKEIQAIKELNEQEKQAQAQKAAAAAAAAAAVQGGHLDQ
hxb8_mouse Hoxb8, P09632, sequence (P09632 whole entry): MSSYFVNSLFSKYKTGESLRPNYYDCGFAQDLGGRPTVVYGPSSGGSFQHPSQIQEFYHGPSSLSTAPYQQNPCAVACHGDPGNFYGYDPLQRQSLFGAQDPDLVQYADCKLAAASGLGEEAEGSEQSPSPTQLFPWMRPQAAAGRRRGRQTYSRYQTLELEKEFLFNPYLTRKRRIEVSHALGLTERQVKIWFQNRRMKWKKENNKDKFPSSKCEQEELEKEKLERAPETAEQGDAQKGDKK

| effect of a mutation on the interaction (hxb8_mouse Hoxb8, P09632) | effect of a mutation on the interaction (lab_drome lab, P10105) | effect of a mutation on the interaction (abdb_drome Abd-B, P09087) | effect of a mutation on the interaction (ubx_drome Ubx, P83949) | effect of a mutation on the interaction (abda_drome abd-A, P29555) | Variant |
| --- | --- | --- | --- | --- | --- |
| disrupting interaction strength |  |  |  |  | N282A |
|  | decreasing interaction strength | disrupting interaction strength | decreasing interaction strength | decreasing interaction strength | N287A |
